For assay [1], the target named is trimeric pre-fusion SARS-CoV-2 spike glycoprotein (pre-S) (SARS-CoV-2 (Wuhan-Hu-1 strain) | Phage T4) (UniProt P0DTC2). The assay can be described thus: negative-stain electron microscopy (called Cryo-EM by the paper).
The target is the same in assay [2]. The assay is described as follows: SEC. (In general: In gel filtration, larger molecules generally elute earlier.)

As for “trimeric pre-fusion SARS-CoV-2 spike glycoprotein (pre-S) (from UniProt P0DTC2 14-1201) (domain or fragment)”, the stoichiometry N in assay [1] and in assay [2] was 3 in each case.

Values taken from paper PMC9671113.
